In patent US20140220031A1 (Biogen, published 2014):
Positions count from the first letter of the chain named. In names and notes the source's numbering stands.

T1: CD154 (human, UniProt P29965 113-261, limits assumed)
T1 construct: also called CD40 ligand; CD40L
T1 sequence (looked up): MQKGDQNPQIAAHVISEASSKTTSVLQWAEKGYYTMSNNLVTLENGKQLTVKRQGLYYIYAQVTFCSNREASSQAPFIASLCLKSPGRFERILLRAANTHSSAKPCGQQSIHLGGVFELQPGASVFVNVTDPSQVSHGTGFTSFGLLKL

B1: 5c8 Fab Mutant #1 (heavy chain T30H) (Fab, V domains shown)
VH: QVQLVQSGAEVVKPGASVKLSCKASGYIFHSYYMYWVKQAPGQGLEWIGEINPSNGDTNFNEKFKSKATLTVDKSASTAYMELSSLRSEDTAVYYCTRSDGRNDMDSWGQGTLVTVSS
VL: DIVLTQSPATLSVSPGERATISCRASQRVSSSTYSYMHWYQQKPGQPPKLLIKYASNLESGVPARFSGSGSGTDFTLTISSVEPEDFATYYCQHSWEIPPTFGGGTKLEIK
notes: Fab fragment
B2: 5c8 Fab Mutant #18 (heavy chain T30H; light chain S26D/Q27E/T33W) (Fab, V domains shown)
VH: B1 VH
VL: B1 VL with S26D, Q27E, T33W
notes: Fab fragment
B3: 5c8 Fab Mutant #25 (heavy chain T30H/Y33W; light chain S26D/Q27E/T33W) (Fab, V domains shown)
VH: B1 VH with Y33W
VL: B1 VL with S26D, Q27E, T33W
notes: Fab fragment; also called combination 5 point mutation (assigned)
B4: 5c8 Fab Mutant #9 (light chain T33D) (Fab, V domains shown)
VH: B1 VH with H30T
VL: B1 VL with T33D
B5: 5c8 Fab Mutant #13 (heavy chain N59L) (Fab, V domains shown)
VH: B1 VH with H30T, N59L
VL: B1 VL
notes: also called Asn59Leu
B6: 5c8 Fab Mutant #10 (light chain Y54E) (Fab, V domains shown)
VH: B1 VH with H30T
VL: B1 VL with Y54E
B7: 5c8 Fab Mutant #4 (heavy chain S54N) (Fab, V domains shown)
VH: B1 VH with H30T, S54N
VL: B1 VL
notes: Fab fragment
B8: 5c8 Fab Mutant #15 (light chain S26D/Q27E/T33W) (Fab, V domains shown)
VH: B1 VH with H30T
VL: B1 VL with S26D, Q27E, T33W
notes: Fab fragment
B9: 5c8 Fab Mutant #12 (heavy chain N59D) (Fab, V domains shown)
VH: B1 VH with H30T, N59D
VL: B1 VL
notes: also called Asn59Asp
B10: 5c8 Fab Mutant #23 (heavy chain Y33W; light chain S26D/Q27E) (Fab, V domains shown)
VH: B1 VH with H30T, Y33W
VL: B1 VL with S26D, Q27E
notes: Fab fragment
B11: 5c8 Fab Mutant #14 (light chain S26D/Q27E) (Fab, V domains shown)
VH: B1 VH with H30T
VL: B1 VL with S26D, Q27E
notes: Fab fragment; also called double mutant
B12: 5c8 Fab Mutant #24 (heavy chain T30H/Y33W; light chain S26D/Q27E) (Fab, V domains shown)
VH: B1 VH with Y33W
VL: B1 VL with S26D, Q27E
notes: Fab fragment
B13: 5c8 Fab Mutant #16 (heavy chain T30H; light chain S26D/Q27E) (Fab, V domains shown)
VH: B1 VH
VL: B1 VL with S26D, Q27E
notes: Fab fragment
B14: 5c8 Fab Mutant #7 (light chain Q27E) (Fab, V domains shown)
VH: B1 VH with H30T
VL: B1 VL with Q27E
notes: Fab fragment
B15: 5c8 Fab Mutant #2 (heavy chain Y33W) (Fab, V domains shown)
VH: B1 VH with H30T, Y33W
VL: B1 VL
notes: Fab fragment
B16: 5c8 Fab Mutant #5 (light chain T33W) (Fab, V domains shown)
VH: B1 VH with H30T
VL: B1 VL with T33W
notes: Fab fragment
B17: 5c8 Fab Mutant #6 (light chain S26D) (Fab, V domains shown)
VH: B1 VH with H30T
VL: B1 VL with S26D
notes: Fab fragment
B18: 5c8 Fab Mutant #11 (heavy chain Y33F) (Fab, V domains shown)
VH: B1 VH with H30T, Y33F
VL: B1 VL
B19: 5c8 Fab Mutant #8 (light chain S31V) (Fab, V domains shown)
VH: B1 VH with H30T
VL: B1 VL with S31V
B20: 5c8 Fab Mutant #17 (heavy chain Y33W; light chain S26D/Q27E/T33W) (Fab, V domains shown)
VH: B1 VH with H30T, Y33W
VL: B1 VL with S26D, Q27E, T33W
notes: Fab fragment

Target: T1, CD154
Assay: ELISA-based competitive binding assay; unlabeled Fab against biotin-labeled 5c8 Fab competitor

| Binder | ELISA fold-improvement over wildtype [fold over wildtype] |
| --- | --- |
| B1 | 2.3 |
| B2 | 5.4 |
| B3 | 5.6 |
| B4 | 0.22 |
| B5 | 0.01 |
| B6 | 0.06 |
| B7 | 2 |
| B8 | 3.8 |
| B9 | 0.13 |
| B10 | 5.2 |
| B11 | 5.6 |
| B12 | 8 |
| B13 | 5.8 |
| B14 | 6.3 |
| B15 | 7 |
| B16 | 5 |
| B17 | 2.6 |
| B18 | 0.05 |
| B19 | 0.02 |
| B20 | 5.9 |

Target: T1, CD154
Assay: assay not named in the sentence (mutants characterized by competitive ELISA)

| Binder | fold higher affinity compared to the wildtype 5c8 Fab [fold over wildtype] |
| --- | --- |
| B11 | 9 |

Target: T1, CD154
Assay: assay not given

| Binder | fold higher affinity compared to the wild type [fold over wild type] |
| --- | --- |
| B3 | 25 |
